# Patent publication US20240400654A1
# Where “and” joins values, the source holds several entries; their conditions need not be identical. Equal values may be shown once.
# B1: KB001 mouse Fab VH Y106V (Fab, V domains shown)
# VH: EVQLKQSGPGLVAPSQSLSITCTVSGFSLSIYSVHWVRQPPGKGLEWLGMIWGGGSSDYNSALKSRLSISKDNSKSQVFLKMNSLQTDDTAMYYCARNGNFYAMDVWGQGTSVTVSS
# VL: QIVLTQSPAIMSASLGERVTMTCTASSSVSSSFLHWYQQKPGSSPQLWIYSTSNLASGVPARFSGSGSGTSYSLTISSMEAEDAATYYCHQYHHSPYIYTFGGGTKLEIK
# B2: KB001 mouse Fab VH S28N (Fab, V domains shown)
# VH: EVQLKQSGPGLVAPSQSLSITCTVSGFNLSIYSVHWVRQPPGKGLEWLGMIWGGGSSDYNSALKSRLSISKDNSKSQVFLKMNSLQTDDTAMYYCARNGNFYAMDYWGQGTSVTVSS
# VL: QIVLTQSPAIMSASLGERVTMTCTASSSVSSSFLHWYQQKPGSSPQLWIYSTSNLASGVPARFSGSGSGTSYSLTISSMEAEDAATYYCHQYHHSPYIYTFGGGTKLEIK
# B3: KB001 mouse Fab VH Y106W (Fab, V domains shown)
# VH: EVQLKQSGPGLVAPSQSLSITCTVSGFSLSIYSVHWVRQPPGKGLEWLGMIWGGGSSDYNSALKSRLSISKDNSKSQVFLKMNSLQTDDTAMYYCARNGNFYAMDWWGQGTSVTVSS
# VL: QIVLTQSPAIMSASLGERVTMTCTASSSVSSSFLHWYQQKPGSSPQLWIYSTSNLASGVPARFSGSGSGTSYSLTISSMEAEDAATYYCHQYHHSPYIYTFGGGTKLEIK
# B4: KB001 mouse Fab VH Y106M (Fab, V domains shown)
# VH: EVQLKQSGPGLVAPSQSLSITCTVSGFSLSIYSVHWVRQPPGKGLEWLGMIWGGGSSDYNSALKSRLSISKDNSKSQVFLKMNSLQTDDTAMYYCARNGNFYAMDMWGQGTSVTVSS
# VL: QIVLTQSPAIMSASLGERVTMTCTASSSVSSSFLHWYQQKPGSSPQLWIYSTSNLASGVPARFSGSGSGTSYSLTISSMEAEDAATYYCHQYHHSPYIYTFGGGTKLEIK
# B5: KB001 mouse Fab VH Y106F (Fab, V domains shown)
# VH: EVQLKQSGPGLVAPSQSLSITCTVSGFSLSIYSVHWVRQPPGKGLEWLGMIWGGGSSDYNSALKSRLSISKDNSKSQVFLKMNSLQTDDTAMYYCARNGNFYAMDFWGQGTSVTVSS
# VL: QIVLTQSPAIMSASLGERVTMTCTASSSVSSSFLHWYQQKPGSSPQLWIYSTSNLASGVPARFSGSGSGTSYSLTISSMEAEDAATYYCHQYHHSPYIYTFGGGTKLEIK
# B6: KB001 mouse Fab VH L29P (Fab, V domains shown)
# VH: EVQLKQSGPGLVAPSQSLSITCTVSGFSPSIYSVHWVRQPPGKGLEWLGMIWGGGSSDYNSALKSRLSISKDNSKSQVFLKMNSLQTDDTAMYYCARNGNFYAMDYWGQGTSVTVSS
# VL: QIVLTQSPAIMSASLGERVTMTCTASSSVSSSFLHWYQQKPGSSPQLWIYSTSNLASGVPARFSGSGSGTSYSLTISSMEAEDAATYYCHQYHHSPYIYTFGGGTKLEIK
# B7: KB001 mouse Fab VH Y106N (Fab, V domains shown)
# VH: EVQLKQSGPGLVAPSQSLSITCTVSGFSLSIYSVHWVRQPPGKGLEWLGMIWGGGSSDYNSALKSRLSISKDNSKSQVFLKMNSLQTDDTAMYYCARNGNFYAMDNWGQGTSVTVSS
# VL: QIVLTQSPAIMSASLGERVTMTCTASSSVSSSFLHWYQQKPGSSPQLWIYSTSNLASGVPARFSGSGSGTSYSLTISSMEAEDAATYYCHQYHHSPYIYTFGGGTKLEIK
# B8: KB001 mouse Fab VH Y106I (Fab, V domains shown)
# VH: EVQLKQSGPGLVAPSQSLSITCTVSGFSLSIYSVHWVRQPPGKGLEWLGMIWGGGSSDYNSALKSRLSISKDNSKSQVFLKMNSLQTDDTAMYYCARNGNFYAMDIWGQGTSVTVSS
# VL: QIVLTQSPAIMSASLGERVTMTCTASSSVSSSFLHWYQQKPGSSPQLWIYSTSNLASGVPARFSGSGSGTSYSLTISSMEAEDAATYYCHQYHHSPYIYTFGGGTKLEIK
# B9: KB001 mouse Fab VH S28L (Fab, V domains shown)
# VH: EVQLKQSGPGLVAPSQSLSITCTVSGFLLSIYSVHWVRQPPGKGLEWLGMIWGGGSSDYNSALKSRLSISKDNSKSQVFLKMNSLQTDDTAMYYCARNGNFYAMDYWGQGTSVTVSS
# VL: QIVLTQSPAIMSASLGERVTMTCTASSSVSSSFLHWYQQKPGSSPQLWIYSTSNLASGVPARFSGSGSGTSYSLTISSMEAEDAATYYCHQYHHSPYIYTFGGGTKLEIK
# B10: KB001 mouse Fab VH Y106S (Fab, V domains shown)
# VH: EVQLKQSGPGLVAPSQSLSITCTVSGFSLSIYSVHWVRQPPGKGLEWLGMIWGGGSSDYNSALKSRLSISKDNSKSQVFLKMNSLQTDDTAMYYCARNGNFYAMDSWGQGTSVTVSS
# VL: QIVLTQSPAIMSASLGERVTMTCTASSSVSSSFLHWYQQKPGSSPQLWIYSTSNLASGVPARFSGSGSGTSYSLTISSMEAEDAATYYCHQYHHSPYIYTFGGGTKLEIK
# B11: KB001 mouse Fab VH L29T (Fab, V domains shown)
# VH: EVQLKQSGPGLVAPSQSLSITCTVSGFSTSIYSVHWVRQPPGKGLEWLGMIWGGGSSDYNSALKSRLSISKDNSKSQVFLKMNSLQTDDTAMYYCARNGNFYAMDYWGQGTSVTVSS
# VL: QIVLTQSPAIMSASLGERVTMTCTASSSVSSSFLHWYQQKPGSSPQLWIYSTSNLASGVPARFSGSGSGTSYSLTISSMEAEDAATYYCHQYHHSPYIYTFGGGTKLEIK
# B12: KB001 mouse Fab VH S28Y (Fab, V domains shown)
# VH: EVQLKQSGPGLVAPSQSLSITCTVSGFYLSIYSVHWVRQPPGKGLEWLGMIWGGGSSDYNSALKSRLSISKDNSKSQVFLKMNSLQTDDTAMYYCARNGNFYAMDYWGQGTSVTVSS
# VL: QIVLTQSPAIMSASLGERVTMTCTASSSVSSSFLHWYQQKPGSSPQLWIYSTSNLASGVPARFSGSGSGTSYSLTISSMEAEDAATYYCHQYHHSPYIYTFGGGTKLEIK
# B13: KB001 mouse Fab VH Y106K (Fab, V domains shown)
# VH: EVQLKQSGPGLVAPSQSLSITCTVSGFSLSIYSVHWVRQPPGKGLEWLGMIWGGGSSDYNSALKSRLSISKDNSKSQVFLKMNSLQTDDTAMYYCARNGNFYAMDKWGQGTSVTVSS
# VL: QIVLTQSPAIMSASLGERVTMTCTASSSVSSSFLHWYQQKPGSSPQLWIYSTSNLASGVPARFSGSGSGTSYSLTISSMEAEDAATYYCHQYHHSPYIYTFGGGTKLEIK
# B14: KB001 mouse Fab VH S28H (Fab, V domains shown)
# VH: EVQLKQSGPGLVAPSQSLSITCTVSGFHLSIYSVHWVRQPPGKGLEWLGMIWGGGSSDYNSALKSRLSISKDNSKSQVFLKMNSLQTDDTAMYYCARNGNFYAMDYWGQGTSVTVSS
# VL: QIVLTQSPAIMSASLGERVTMTCTASSSVSSSFLHWYQQKPGSSPQLWIYSTSNLASGVPARFSGSGSGTSYSLTISSMEAEDAATYYCHQYHHSPYIYTFGGGTKLEIK
# B15: KB001 mouse Fab VH Y106Q (Fab, V domains shown)
# VH: EVQLKQSGPGLVAPSQSLSITCTVSGFSLSIYSVHWVRQPPGKGLEWLGMIWGGGSSDYNSALKSRLSISKDNSKSQVFLKMNSLQTDDTAMYYCARNGNFYAMDQWGQGTSVTVSS
# VL: QIVLTQSPAIMSASLGERVTMTCTASSSVSSSFLHWYQQKPGSSPQLWIYSTSNLASGVPARFSGSGSGTSYSLTISSMEAEDAATYYCHQYHHSPYIYTFGGGTKLEIK
# B16: KB001 mouse Fab VH S28G (Fab, V domains shown)
# VH: EVQLKQSGPGLVAPSQSLSITCTVSGFGLSIYSVHWVRQPPGKGLEWLGMIWGGGSSDYNSALKSRLSISKDNSKSQVFLKMNSLQTDDTAMYYCARNGNFYAMDYWGQGTSVTVSS
# VL: QIVLTQSPAIMSASLGERVTMTCTASSSVSSSFLHWYQQKPGSSPQLWIYSTSNLASGVPARFSGSGSGTSYSLTISSMEAEDAATYYCHQYHHSPYIYTFGGGTKLEIK
# B17: KB001 mouse Fab VH S28A (Fab, V domains shown)
# VH: EVQLKQSGPGLVAPSQSLSITCTVSGFALSIYSVHWVRQPPGKGLEWLGMIWGGGSSDYNSALKSRLSISKDNSKSQVFLKMNSLQTDDTAMYYCARNGNFYAMDYWGQGTSVTVSS
# VL: QIVLTQSPAIMSASLGERVTMTCTASSSVSSSFLHWYQQKPGSSPQLWIYSTSNLASGVPARFSGSGSGTSYSLTISSMEAEDAATYYCHQYHHSPYIYTFGGGTKLEIK
# B18: KB001 mouse Fab VH G26N (Fab, V domains shown)
# VH: EVQLKQSGPGLVAPSQSLSITCTVSNFSLSIYSVHWVRQPPGKGLEWLGMIWGGGSSDYNSALKSRLSISKDNSKSQVFLKMNSLQTDDTAMYYCARNGNFYAMDYWGQGTSVTVSS
# VL: QIVLTQSPAIMSASLGERVTMTCTASSSVSSSFLHWYQQKPGSSPQLWIYSTSNLASGVPARFSGSGSGTSYSLTISSMEAEDAATYYCHQYHHSPYIYTFGGGTKLEIK
# B19: KB001 mouse Fab VH Y106R (Fab, V domains shown)
# VH: EVQLKQSGPGLVAPSQSLSITCTVSGFSLSIYSVHWVRQPPGKGLEWLGMIWGGGSSDYNSALKSRLSISKDNSKSQVFLKMNSLQTDDTAMYYCARNGNFYAMDRWGQGTSVTVSS
# VL: QIVLTQSPAIMSASLGERVTMTCTASSSVSSSFLHWYQQKPGSSPQLWIYSTSNLASGVPARFSGSGSGTSYSLTISSMEAEDAATYYCHQYHHSPYIYTFGGGTKLEIK
# B20: KB001 mouse Fab VH G26D (Fab, V domains shown)
# VH: EVQLKQSGPGLVAPSQSLSITCTVSDFSLSIYSVHWVRQPPGKGLEWLGMIWGGGSSDYNSALKSRLSISKDNSKSQVFLKMNSLQTDDTAMYYCARNGNFYAMDYWGQGTSVTVSS
# VL: QIVLTQSPAIMSASLGERVTMTCTASSSVSSSFLHWYQQKPGSSPQLWIYSTSNLASGVPARFSGSGSGTSYSLTISSMEAEDAATYYCHQYHHSPYIYTFGGGTKLEIK
# B21: KB001 mouse Fab VH S28R (Fab, V domains shown)
# VH: EVQLKQSGPGLVAPSQSLSITCTVSGFRLSIYSVHWVRQPPGKGLEWLGMIWGGGSSDYNSALKSRLSISKDNSKSQVFLKMNSLQTDDTAMYYCARNGNFYAMDYWGQGTSVTVSS
# VL: QIVLTQSPAIMSASLGERVTMTCTASSSVSSSFLHWYQQKPGSSPQLWIYSTSNLASGVPARFSGSGSGTSYSLTISSMEAEDAATYYCHQYHHSPYIYTFGGGTKLEIK
# Molecular target: HRgpA-6H (Porphyromonas gingivalis) (UniProt P28784)
# Chain of UniProt P28784 (P28784 228-860 limits assumed): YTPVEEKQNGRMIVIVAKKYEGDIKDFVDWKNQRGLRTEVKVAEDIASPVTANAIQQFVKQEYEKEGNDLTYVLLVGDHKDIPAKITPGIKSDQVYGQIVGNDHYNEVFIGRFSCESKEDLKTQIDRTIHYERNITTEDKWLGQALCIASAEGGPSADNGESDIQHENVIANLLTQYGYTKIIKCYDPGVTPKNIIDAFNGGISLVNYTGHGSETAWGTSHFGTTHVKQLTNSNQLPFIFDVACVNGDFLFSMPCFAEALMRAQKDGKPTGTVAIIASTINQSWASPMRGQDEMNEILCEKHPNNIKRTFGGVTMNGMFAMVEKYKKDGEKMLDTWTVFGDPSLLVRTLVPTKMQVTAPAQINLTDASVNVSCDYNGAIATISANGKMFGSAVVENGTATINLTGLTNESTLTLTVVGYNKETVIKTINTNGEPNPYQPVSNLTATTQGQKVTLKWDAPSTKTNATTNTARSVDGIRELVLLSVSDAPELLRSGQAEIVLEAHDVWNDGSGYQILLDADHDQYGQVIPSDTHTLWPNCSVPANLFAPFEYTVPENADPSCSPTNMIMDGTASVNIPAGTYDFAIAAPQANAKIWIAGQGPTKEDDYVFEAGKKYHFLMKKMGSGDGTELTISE
# Experiment: ELISA, coated HRgpA-6H
Binder,OD450 nm,Ratio OD(Variant)/OD(WT)
B1,0.795 and 0.84 and 0.802,1.03 and 1.09 and 1.04
B2,0.53,0.981
B3,0.791 and 0.809 and 0.82,1.03 and 1.05 and 1.07
B4,0.794 and 0.84,1.03 and 1.09
B5,0.815 and 0.856,1.06 and 1.11
B6,0.468,0.867
B7,0.792,1.03
B8,0.803,1.04
B9,0.435 and 0.468,0.806 and 0.867
B10,0.852 and 0.849,1.11 and 1.1
B11,0.502 and 0.512 and 0.501,0.93 and 0.948 and 0.928
B12,0.437,0.809
B13,0.807,1.05
B14,0.511 and 0.526,0.946 and 0.974
B15,0.792,1.03
B16,0.468 and 0.486,0.867 and 0.9
B17,0.488,0.904
B18,0.445,0.876
B19,0.793,1.03
B20,0.47 and 0.481,0.925 and 0.947
B21,0.458,0.848
